The chains are these.
B1: D1.2, mutant variant of p21^140–157 (Ac-SESSQTSMTDFYHSESSL-NH2) (peptide)
chain: Ac-SESSQTSMTDFYHSESSL-NH2
B2: S1, mutant variant of p21^140–157 (Ac-SESSQTSMTDFYHSKRRL-NH2) (peptide)
chain: Ac-SESSQTSMTDFYHSKRRL-NH2
B3: S2, mutant variant of p21^140–157 (Ac-RKRRQTSMTDFYHSESSL-NH2) (peptide)
chain: Ac-RKRRQTSMTDFYHSESSL-NH2

Chain of N-terminally His6-tagged human PCNA (proliferating cell nuclear antigen) (P12004 whole entry): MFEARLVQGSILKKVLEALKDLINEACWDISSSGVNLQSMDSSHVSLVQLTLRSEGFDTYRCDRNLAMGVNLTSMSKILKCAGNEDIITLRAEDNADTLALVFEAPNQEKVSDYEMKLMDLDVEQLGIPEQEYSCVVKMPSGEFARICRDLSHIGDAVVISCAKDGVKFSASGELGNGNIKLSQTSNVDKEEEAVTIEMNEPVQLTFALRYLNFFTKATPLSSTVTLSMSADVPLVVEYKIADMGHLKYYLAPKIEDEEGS

The test has as its target N-terminally His6-tagged human PCNA (proliferating cell nuclear antigen) (human, UniProt P12004 1-261). In words: ITC. Background: ITC needs no label: the signal is the heat of the interaction.
For orientation: Kd means a measure of binding affinity in units of concentration. A high value points to a looser complex. For the molecule B1, the affinity, expressed as Kd, was 40 µM. To B2 belongs 8.3 µM; to B3, 0.3 µM.
